Measurements from patent US6495144B2, “EBNA2 peptides and methods of using same” (Johns Hopkins University School of Medicine, priority 1996, dated 2002).
Entries after “also recorded” stand apart in the source; their conditions may differ. Marks after values point to notes of the source that are not given here.

How the values were obtained:
[1] = molecular target: T1, CBF1/RBPJk (Homo sapiens, UniProt Q06330); test: EMSA of EBNA2/CBF1 complex formation with in vitro translated EBNA2 peptides; assay type: binding; conditions: for behaviour in EMSA (competition for CBF1 complex, formation of supershifted EBNA2/CBF1 complex): equimolar in vitro translated peptides, Cp CBF1 binding site probe
T1 construct: EMSA using CBF1 purified by heparin-agarose chromatography; endogenous in cells; host or cells: CA46 cells (fractionated extract, heparin-agarose)
T1 sequence (Q06330 whole entry): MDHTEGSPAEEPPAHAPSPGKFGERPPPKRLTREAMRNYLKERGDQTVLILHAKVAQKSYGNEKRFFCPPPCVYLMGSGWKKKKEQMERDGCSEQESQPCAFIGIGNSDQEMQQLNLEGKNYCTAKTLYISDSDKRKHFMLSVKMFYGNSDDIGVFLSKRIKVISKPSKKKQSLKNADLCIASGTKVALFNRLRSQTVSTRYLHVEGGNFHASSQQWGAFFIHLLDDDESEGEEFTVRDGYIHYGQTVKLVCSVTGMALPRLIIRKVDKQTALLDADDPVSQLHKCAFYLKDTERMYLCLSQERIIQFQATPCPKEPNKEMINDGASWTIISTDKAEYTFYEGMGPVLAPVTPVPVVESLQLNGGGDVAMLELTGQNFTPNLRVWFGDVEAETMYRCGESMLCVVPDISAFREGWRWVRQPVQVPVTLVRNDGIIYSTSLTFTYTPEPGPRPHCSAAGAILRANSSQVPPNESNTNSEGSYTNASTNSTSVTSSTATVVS
Description: FIG. 3 is an autoradiogram that depicts the effect of mutations on the ability of an EBNA2 (i.e., E2) peptide comprising amino acids 252-425 to interact with CBF1/RBPJk: probe (lane 1); E2 only (lane 2); lysate (lane 3); CBF1 (lane 4); CBF1 and lysate (lane 5); CBF1 and E2 252-425 (lane 6); CBF1 and del376-425 (lane 7); CBF1 and del343-425 (lane 8); CBF1 and del252-366 (lane 9); CBF1 and del252-309, del398-425 (lane 10); CBF1 and del344-357 (lane 11); CBF1 and II307SR (CR5) (lane 12); CBF1 and GP320SR (CR6) (lane 13); CBF1 and WW323SR (CR6) (lane 14); CBF1 and PI326SR (CR6) (lane 15); CBF1 and SR360VD (PKC) (lane 16); and CBF1 and LGL389SRT (CR7) (lane 17). Results of an EMSA using CBF1 purified by heparin-agarose chromatography and a 30-base pair oligonucleotide probe containing the Cp CBF1 binding site (Ling et al. (1993a), supra) are shown. The wild-type EBNA2 and mutant EBNA2 peptides spanning amino acids 252-425 were in vitro transcribed and translated, and equimolar amounts were added to the binding reactions. Addition of unprogrammed reticulocyte lysate to the CBF1 extract (+lysate) produced a minor bandshift that migrated in the range of the E2/CBF1 complex. The EBNA2/CBF1 complexes (i.e., E2/CBF1 complexes) vary in mobility depending on the size of the added EBNA2 peptide.
FIG. 6 is an EMSA that compares the ability of type A EBNA2 (i.e., EBNA2 comprising amino acids 252-425) and the homologous domains of type B (i.e., EBNA2 comprising amino acids 216-392) and HVP EBNA2 (i.e., HBP EBNA2 comprising amino acids 288-470) to form complexes with CBF1/RBPJk. The EBNA2 peptides and CBF1/RPBPJk were prepared by in vitro transcription and translation. EBNA2 peptides were added with two-fold increases in amount (black triangles) to a binding mixture containing a constant amount of CBF1/RBPJk and a 30-base pair Cp CBF1 binding site probe. Symbols: P, probe only; R, reticulolysate.
The relative positions of the various functional domains the EBNA2 protein are depicted in FIG. 1. To define the amino acids required for interaction with CBF1, various synthetic peptides comprising the promoter targeting domain (i.e., the CBF1/RBPJk interaction domain) were constructed. The truncated and mutated peptides diagrammed in FIG. 2 were synthesized by in vitro transcription-translation, and were tested for their ability to form complexes with CBF1 that could be detected in an electrophoretic mobility shift assay (EMSA) (Ling et al., J. Virol., 69, 1944-1950 (1995)). The expressed peptides were tested using a fractionated extract of EBV negative lymphoblastoid CA46 cells (American Type Culture Collection, Rockville, Md.). The peptides were labeled with ^35S-methionine, and their integrity was confirmed by sodium dodecylsulfate sulfate-polyacrylamide gel electrophoresis (SDS-PAGE). To ensure that equal amounts of the EBNA2 peptides were added to each binding reaction mixture, the SDS-PAGE bands were quantitated using a Molecular Dynamics Phosphorimager, and the volume of the samples was adjusted on the basis of peptide size and the number of methionine residues.

[2] = tested on: EBV latency C promoter (Cp-CAT); test: Cp-CAT transactivation by EBNA2 effector DNAs cotransfected in DG75 cells; assay type: cell-based, Epstein-Barr virus; conditions: for transactivation of Cp-CAT, dose-response, in words: 0-2.0 μg effector DNA, 2 μg target; for % Transactivation: relative EBNA2 transactivation of the Cp, at DNA concentrations giving 50% acetylation for wild-type EBNA2, mutations in full-length EBNA2
Protocol: FIGS. 4A-4B are graphs that depict μg effector versus % acetylation for transactivation in DG75 cells of a Cp-CAT construction (Ling et al. (1993b), supra) cotransfected at 2 μg with increasing amounts (i.e., 0, 0.25, 0.5, 1.0 and 2.0 μg) of the indicated EBNA2 effector DNAs. Immunoblot analysis confirmed the equivalent expression of the different EBNA2 effector constructions in transfected cells.
FIGS. 7A-7B are graphs that depict μg effector versus fold-induction for cotransfection assays comparing the ability of type A EBNA2 and type B EBNA2 to transactivate expression from Cp-CAT (FIG. 7A) and CD23p-CAT (FIG. 7B) (Ling et al. (1994), supra) in DG75 cells. The target plasmids were transfected at a constant amount (2 μg) and the effector DNAs at increasing amounts of 0, 0.25, 0.5, 1.0 and 2.0 μg.
In order to correlate the effect of the mutations on CBF1 interaction measured in the in vitro binding assays with the effects on CBF1 interaction in vivo in cultured cells, the point mutations and the glycine-arginine deletion were incorporated into full-length EBNA2 proteins which were used to study EBNA2 targeting in transactivation assays. The mutant proteins were synthesized in equal abundance in transfected cells as assessed by Western blot analysis. FIGS. 4A and 4B compare the ability of wild-type and mutant EBNA2 proteins to transactivate expression from the EBV latency C promoter in a dose-response assay (Ling et al. (1993b), supra).

[3] = linear range of the assay, 0.5 μg effector DNA

B1: WW323SR (CR6): EBNA2 with tryptophans 323 and 324 in CR6 changed to SR (protein)
chain: MPTFYLALHGGQTYHLIVDTDSLGNPSLSVIPSNPYQEQLSDTPLIPLTIFVGENTGVPPPLPPPPPPPPPPPPPPPPPPPPPPPPPPSPPPPPPPPPPPQRRDAWTQEPSPLDRDPLGYDVGHGPLASAMRMLWMANYIVRQSRGDRGLILPQGPQTAPQARLVQPHVPPLRPTAPTILSPLSQPRLTPPQPLMMPPRPTPPTPLPPATLTVPPRPTRPTTLPPTPLLTVLQRPTELQPTPSPPRMHLPVLHVPDQSMHPLTHQSTPNDPDSPEPRSPTVFYNIPPMPLPPSQLPPPAAPAQPPPGVINDQQLHHLPSGPPSRPPICDPPQPSKTQGQSRGQSRGRGRGRGRGRGKGKSRDKQRKPGGPWRPEPNTSSPSMPELSPVLGLHQGQGAGDSPTPGPSNAAPVCRNSHTATPNVSPIHEPESHNSPEAPILFPDDWYPPSIDPADLDESWDYIFETTESPSSDEDYVEGPSKRPRPSIQ
behaviour in EMSA (competition for CBF1 complex, formation of supershifted EBNA2/CBF1 complex) [1]: did not compete for the CBF1 complex and produced little or no EBNA2/CBF1 supershifted complex
transactivation of Cp-CAT, dose-response, in words [2]: inability of this mutant to transactivate the Cp even at high doses of effector
% Transactivation [2]: 0%

B2: PI326SR (CR6): EBNA2 with PI at 326 in CR6 changed to SR (protein)
chain: MPTFYLALHGGQTYHLIVDTDSLGNPSLSVIPSNPYQEQLSDTPLIPLTIFVGENTGVPPPLPPPPPPPPPPPPPPPPPPPPPPPPPPSPPPPPPPPPPPQRRDAWTQEPSPLDRDPLGYDVGHGPLASAMRMLWMANYIVRQSRGDRGLILPQGPQTAPQARLVQPHVPPLRPTAPTILSPLSQPRLTPPQPLMMPPRPTPPTPLPPATLTVPPRPTRPTTLPPTPLLTVLQRPTELQPTPSPPRMHLPVLHVPDQSMHPLTHQSTPNDPDSPEPRSPTVFYNIPPMPLPPSQLPPPAAPAQPPPGVINDQQLHHLPSGPPWWPSRCDPPQPSKTQGQSRGQSRGRGRGRGRGRGKGKSRDKQRKPGGPWRPEPNTSSPSMPELSPVLGLHQGQGAGDSPTPGPSNAAPVCRNSHTATPNVSPIHEPESHNSPEAPILFPDDWYPPSIDPADLDESWDYIFETTESPSSDEDYVEGPSKRPRPSIQ
behaviour in EMSA (competition for CBF1 complex, formation of supershifted EBNA2/CBF1 complex) [1]: did not compete for the CBF1 complex and produced little or no EBNA2/CBF1 supershifted complex; also recorded: severely impaired the ability of the peptide to form a complex with CBF1 in an EMSA
transactivation of Cp-CAT relative to wild-type EBNA2 ([2]; highest levels of effector DNA): 20%
transactivation of Cp-CAT relative to wild-type EBNA2 [2, 3]: 2%
% Transactivation [2]: 2^c %

B3: GP320SR (CR6): EBNA2 with two non-hydrophobic residues GP at 320 in CR6 changed to SR (protein)
chain: MPTFYLALHGGQTYHLIVDTDSLGNPSLSVIPSNPYQEQLSDTPLIPLTIFVGENTGVPPPLPPPPPPPPPPPPPPPPPPPPPPPPPPSPPPPPPPPPPPQRRDAWTQEPSPLDRDPLGYDVGHGPLASAMRMLWMANYIVRQSRGDRGLILPQGPQTAPQARLVQPHVPPLRPTAPTILSPLSQPRLTPPQPLMMPPRPTPPTPLPPATLTVPPRPTRPTTLPPTPLLTVLQRPTELQPTPSPPRMHLPVLHVPDQSMHPLTHQSTPNDPDSPEPRSPTVFYNIPPMPLPPSQLPPPAAPAQPPPGVINDQQLHHLPSSRPWWPPICDPPQPSKTQGQSRGQSRGRGRGRGRGRGKGKSRDKQRKPGGPWRPEPNTSSPSMPELSPVLGLHQGQGAGDSPTPGPSNAAPVCRNSHTATPNVSPIHEPESHNSPEAPILFPDDWYPPSIDPADLDESWDYIFETTESPSSDEDYVEGPSKRPRPSIQ
behaviour in EMSA (competition for CBF1 complex, formation of supershifted EBNA2/CBF1 complex) [1]: had no effect on the behavior of the peptide in the EMSA
transactivation of Cp-CAT, dose-response, in words [2]: mirrored that of wild-type EBNA2
% Transactivation [2]: 120%

B4: type B EBNA2 comprising amino acids 216-392: homologous CBF1 interaction domain of human type B EBNA2, in vitro translated (protein)
chain: GHQLSLPPHPPPHQSTPHCSSDSTGLPPPPTSYSIPSMTLSPEPLPPPAAPAHPLPGVIYDQQALPPTPGPPWWPPVRDPTPTTQTPPTNTKQGPDQGQGRGRWRGRGRSKGRGRMHKLPEPRRPGPDTSSPSMPQLSPVVSLHQGQGPENSPTPGPSTAGPVCRVTPSATPDISPI
behaviour in EMSA (competition for CBF1 complex, formation of supershifted EBNA2/CBF1 complex) [1]: bound CBF1 comparably to type A EBNA2
amount of peptide required to convert all the CBF1 to the supershifted complex, versus type A EBNA2 ([1]; in vitro translated CBF1/RBPJk, two-fold increases of peptide): two-fold more

B5: del344-357: EBNA2 with glycine-arginine repeats removed by deletion of amino acids 344-357 (protein)
chain: MPTFYLALHGGQTYHLIVDTDSLGNPSLSVIPSNPYQEQLSDTPLIPLTIFVGENTGVPPPLPPPPPPPPPPPPPPPPPPPPPPPPPPSPPPPPPPPPPPQRRDAWTQEPSPLDRDPLGYDVGHGPLASAMRMLWMANYIVRQSRGDRGLILPQGPQTAPQARLVQPHVPPLRPTAPTILSPLSQPRLTPPQPLMMPPRPTPPTPLPPATLTVPPRPTRPTTLPPTPLLTVLQRPTELQPTPSPPRMHLPVLHVPDQSMHPLTHQSTPNDPDSPEPRSPTVFYNIPPMPLPPSQLPPPAAPAQPPPGVINDQQLHHLPSGPPWWPPICDPPQPSKTQGQSRGQGKSRDKQRKPGGPWRPEPNTSSPSMPELSPVLGLHQGQGAGDSPTPGPSNAAPVCRNSHTATPNVSPIHEPESHNSPEAPILFPDDWYPPSIDPADLDESWDYIFETTESPSSDEDYVEGPSKRPRPSIQ
% Complex formation ([1]; EBNA2/CBF1 supershifted complex relative to wild-type EBNA2(252-425), phosphoimager, reticulocyte lysate background subtracted): 100%
behaviour in EMSA (competition for CBF1 complex, formation of supershifted EBNA2/CBF1 complex) [1]: did not negatively affect EBNA2/CBF1 complex formation
behaviour in EMSA (competition for CBF1 complex, formation of supershifted EBNA2/CBF1 complex) ([1]; listed as glycine-arginine deletion): did not negatively affect complex formation in the EMSA
transactivation of Cp-CAT relative to wild-type EBNA2 [2, 3]: 150%
% Transactivation [2]: 150%
